# Measured values: patent publication US20250034601A1, “HETERODIMERIC BENZALDEHYDE SYNTHASE, METHODS OF PRODUCING, AND USES THEREOF” (Purdue Research Foundation, priority 2021, published 2025)
# B1: PhBS: heterodimeric Petunia hybrida benzaldehyde synthase of PhBSα (SEQ ID NO: 1) and PhBSβ (SEQ ID NO: 2) subunits, 1:1 ratio (protein, listed as Petunia hybrida)
# alpha: MEKQTQARFLEPWRDLKGKVVMVTGASSGIGLDLCLDLAKAGCKIIAAARRVDRLKSLCNQINAAADDDDDNNRAVAVELDVSANGDAIEAAVKEAWGAFGRIDALVNNAGVRGTVHSPLELTEEECHNTFRTNLTGTWLVSKYVCKFMRDAKQGGSVINISSIAGLNRGQLPGGLAYVSSKGAVNMVTKVMALELGVDKIRVNSISPGLFKSEITQGLIQKEWLNNVAMRTIPLRTHGNSADPALTSVVRYLIHDSSEYVSGNLFIVDAGATLPGVPIFSSL
# beta: MENSGKKVLLTSNGDDICNNIAYHLAQRGCQLVLMGNESQLKSVAEMIKQSLGGSAAVEVVGLDMEEDREAAFEEAVDKAWKIFGKLDALVNCYSYEGKMQDPLQLIEEEFKKIVKINFMAGWYLMKCISKKMRDDKSGGSIVFLTSIIGAERGIYQGAAAYGSCLGGIQQLVRLAAIELGKHQIRVNGISRGLHLQDEYPKAVGLERAEKMTKEAAPLNRWLDVKKDLASTVIYLISDDSRYMTGTSIFVDGAQSLVRPRMRSYM
# Key:
# [1] = Purified PhBS with short-chain fatty acyl-CoA substrates (GC-MS); format: biochemical; conditions: 1 mM fatty acyl-CoA, 28° C., 1 hour
# Procedure: Given the peroxisomal localization of PhBS, it was also analyzed if purified PhBS could be involved in metabolism of short-chain fatty acyl-CoA esters. […] All reactions were carried out at 28° C. for 1 hour.
# [2] = Substrate specificity of purified BS with benzoyl-CoA and hydroxycinnamoyl-CoA analogs (GC-MS); format: biochemical; conditions: 1:1 ratio between α and β subunits, NADPH; cinnamoyl-, para-coumaroyl-, caffeoyl-, feruloyl-, sinapoyl-CoA versus benzoyl-CoA
# Description: The response of internal standard in each run was set as 100%.
# To analyze substrate specificity of PhBS, CoA esters were enzymatically synthesized from cinnamic acid, para-coumaric acid, caffeic acid, ferulic acid and sinapic acid using purified recombinant petunia 4-coumarate:CoA ligase (Ph4CL1) purified using the protocols described herein (FIG. 11B; triangle indicates the position of the Ph4CL1 protein). […] The experiment was repeated at least six times with similar results.
# To test whether AtBS is involved in the biosynthesis of other aromatic aldehydes, hydroxycinnamoyl-CoA thioesters were incubated with purified AtBS enzyme, and the corresponding aldehyde formation was analyzed. Briefly, GC-MS analysis was performed of the products formed by AtBS from different hydroxycinnamoyl-CoA substrates. […] Shown in FIG. 22 are the combined EICs of mass units 106 (benzaldehyde), 128 (internal standard), 131 (cinnamaldehyde), and 178 (coniferaldehyde).
# N. benthamiana leaves = assay: Reconstitution of benzaldehyde biosynthetic pathway in N. benthamiana leaves, benzylalcohol formation; format: in vivo, Nicotiana benthamiana; conditions: 150 mM Phe feeding for 24 hours, after Viscozyme treatment; means ± SE, n=5
# Description: In addition, the complete benzaldehyde β-oxidative biosynthetic pathway was reconstituted in N. benthamiana by expressing together with the PhBS four additional genes encoding phenylalanine ammonia lyase 1 (PhPAL1), PhCNL, PhCHD and PhKAT. Klempien et al. (2012), supra; Qualley et al., Completion of the core 0-oxidative pathway of benzoic acid biosynthesis in plants. Proceedings of the National Acad of Sciences of the U.S.A. 109: 16383-16388 (2012); Moerkercke et al., A plant thiolase involved in benzoic acid biosynthesis and volatile benzenoid production, The Plant J. 60: 292-302 (2009).
# The coding sequences of PhPAL1, PhCNL, PhCHD, PhKAT, PhBSα (SEQ ID NO: 1) and PhBSβ (SEQ ID NO: 2) were PCR amplified with gene-specific primers (see Table 1 of FIG. 24) from petunia flower cDNAs and cloned into binary vector pCNHP using ClonExpress II One Step Cloning Kit (Vazyme Biotech Co., Piscataway, NJ). After sequence verification, plasmids were transformed into Agrobacterium tumefaciens strain GV3101. Single colonies for each construct were picked and cultured at 28° C. in 3 mL of LB medium supplied with 50 mg/L rifampicin, 50 mg/L gentamycin and 50 mg/L kanamycin to an OD600 of about 2.0. Bacterial cultures were pelleted, washed with a 10 mM MgCl2 solution containing 200 μM acetosyringone, and incubated in the same solution for additional 2 hours at room temperature. […]
molecule,measurement,setting,value
B1,product formed from hexanoyl-CoA,[1],only trace amounts of hexanal were detected
same,substrate specificity (aldehyde formation from CoA esters),[2],strict substrate selectivity for benzoyl-CoA
same,benzylalcohol produced in infiltrated leaves,N. benthamiana leaves,327.9±14.3 nmol·g FW^−1
